B1: CPEB3 Ribozyme (parent)
chain: GGGGGCCACAGCAGAAGCGUUCACGUCGCGGCCCCUGUCAGAUUCUGGUGAAUCUGCGAAUUCUGCUGU

Variants of: B1
Assay: self-cleavage, relative activity (ratio to wild type); higher = more cleavage; co-transcriptional

Row | Variant | self-cleavage
1 | C32A U62C | 0.339
2 | C33U A40G | 0.952
3 | C33U A40C | 0.619
4 | C33U A40U | 0.906
5 | C32G G58A | 0.44
6 | C33G U69G | 0.899
7 | C33G U69A | 0.82
8 | C32G G65A | 0.288
9 | C32G G65C | 0.224
10 | C32U C54A | 0.861
11 | C32U C54U | 0.966
12 | C33U C63A | 0.795
13 | C33U C63G | 0.82
14 | C33U C63U | 0.936
15 | C33G A60U | 0.328
16 | C33G A60C | 0.415
17 | C33G A60G | 0.372
18 | C33G G41U | 0.268
19 | C32U U67A | 0.987
20 | C33G C54G | 0.338
21 | C33G C54U | 0.727
22 | C32G U46A | 0.492
23 | C32G U46G | 0.522
24 | C33A G65C | 0.529

Row | Variant | self-cleavage
25 | C32U U49A | 1.01
26 | C32U C35G | 0.349
27 | C32U A51C | 0.964
28 | C32A U64C | 0.499
29 | C32A U64G | 0.726
30 | C32A U64A | 0.519
31 | C33A C63G | 0.513
32 | C33G G48U | 0.579
33 | C33G G48C | 0.629
34 | C33G G48A | 0.648
35 | C33A G50C | 0.92
36 | C33A G50A | 0.938
37 | C32G U49A | 0.658
38 | C32G U49C | 0.543
39 | C32A U49A | 0.871
40 | C32A U49C | 0.704
41 | C32G U64A | 0.235
42 | C32G U64G | 0.253
43 | C33A U69C | 1.04
44 | C33A U69G | 0.988
45 | C33G U55G | 0.38
46 | C33G U55A | 0.571
47 | C32G U53A | 0.266
48 | C33U A52C | 0.978

Row | Variant | self-cleavage
49 | C33A G58U | 0.881
50 | C33A G58C | 0.837
51 | C32G C39U | 0.332
52 | C32G G50C | 0.299
53 | C32G G50U | 0.503
54 | C32G U69C | 0.839
55 | C32A U69C | 1.03
56 | C32G C34U | 0.363
57 | C33A A40G | 0.748
58 | C33G U49C | 0.645
59 | C33G U49A | 0.748
60 | C32G G41C | 0.267
61 | C32G G41A | 0.35
62 | C33G A59C | 0.326
63 | C33G U44C | 0.576
64 | C33G U44G | 0.333
65 | C33A G56U | 0.756
66 | C33A G56C | 0.488
67 | C32G C35A | 0.143
68 | C32G C35G | 0.303
69 | C32U A52G | 0.967
70 | C32U A52U | 0.987
71 | C32A U46G | 0.729
72 | C32A U46C | 0.776

Row | Variant | self-cleavage
73 | C32A U46A | 0.574
74 | C32G | 0.584
75 | C32U | 0.993
76 | C32U U69C | 1.06
77 | C32U U69G | 1.03
78 | C33G C66A | 0.526
79 | C33G C66U | 0.649
80 | C33U A59C | 0.706
81 | C33U A59U | 0.8
82 | C33U A59G | 0.959
83 | C33A C34G | 0.229
84 | C33A C34A | 0.331
85 | C33G U62G | 0.374
86 | C33G U62A | 0.391
87 | C33G U64A | 0.638
88 | C33G U64C | 0.484
89 | C33G U64G | 0.395
90 | C33U C45G | 0.98
91 | C33U C45A | 0.987
92 | C33A C35U | 0.442
93 | C33A C35G | 0.204
94 | C33A C35A | 0.151
95 | C32G A52C | 0.435
96 | C32G U38A | 0.443

Row | Variant | self-cleavage
97 | C32G U38C | 0.235
98 | C32G U38G | 0.207
99 | C32U U61C | 0.856
100 | C32U U61G | 0.829
101 | C33U A60G | 0.814
102 | C33U A60U | 0.505
103 | C32U C34A | 0.541
104 | C33G A51U | 0.415
105 | C33G A51G | 0.739
106 | C32G U55C | 0.258
107 | C32G U55G | 0.218
108 | C33G G37A | 0.299
109 | C33G G37U | 0.245
110 | C33U A42U | 0.953
111 | C33U A42C | 0.793
112 | C33U A42G | 0.916
113 | C33U G48C | 0.998
114 | C33U G48A | 1
115 | C33U G48U | 1.03
116 | C32U U38C | 0.955
117 | C32U G41A | 0.845
118 | C32U G47U | 1.01
119 | C32U A59C | 0.687
120 | C32U A59G | 0.954

Row | Variant | self-cleavage
121 | C32U A59U | 0.785
122 | C33A U49A | 0.965
123 | C33A U49G | 0.981
124 | C33A U49C | 0.926
125 | C32U G56A | 0.94
126 | C32U G56U | 0.971
127 | C32U C45G | 0.975
128 | C32U C45U | 1.01
129 | C32U C45A | 0.983
130 | C33G U36A | 0.13
131 | C33G U36G | 0.25
132 | C33A G41U | 0.562
133 | C33A G41A | 0.349
134 | C32U G58A | 0.983
135 | C32G U44A | 0.385
136 | C32G U44G | 0.426
137 | C32G G68A | 0.808
138 | C32G G68C | 0.768
139 | C33G A52C | 0.461
140 | C33G A52G | 0.663
141 | C33U C54U | 0.949
142 | C33A U43G | 0.361
143 | C33A U43C | 0.461
144 | C32U C63A | 0.886

Row | Variant | self-cleavage
145 | C32U C63U | 0.956
146 | C33A U36G | 0.256
147 | C33A U36C | 0.785
148 | C33A U36A | 0.157
149 | C32U U62G | 0.864
150 | C32A U38G | 0.271
151 | C32A U38C | 0.504
152 | C33G U43G | 0.377
153 | C32U U44A | 0.948
154 | C33U A51G | 0.922
155 | C33U A51C | 0.948
156 | C33U A51U | 0.963
157 | C33G U53A | 0.395
158 | C33G U53G | 0.32
159 | C32G U61A | 0.292
160 | C32A U53G | 0.419
161 | C32A U53C | 0.455
162 | C32U U55G | 0.896
163 | C32U U55A | 0.989
164 | C32U U36G | 0.297
165 | C33A U67A | 0.977
166 | C33A U67G | 1.01
167 | C33G U67C | 0.777
